Reference: patent publication US20110319338A1, “PEPTIDES THAT BIND EUKARYOTIC TRANSLATION INITIATION FACTOR 4E” (The Board of Regents of the University of Texas System, priority 2008, published 2011)
Square brackets hold non-standard residues; d marks the D form. Ends that are not written are not given here.

Target: T1, binding of eIF4E to eIF4G (Homo sapiens, UniProt P06730)
T1 construct: endogenous in cells; host or cells: OVCAR-3 cell lysate
Assay: Immunoprecipitation with eIF4E antibody and Western blot with eIF4G antibody, OVCAR-3 cell lysate incubated with peptide
Conditions: peptide 3 micromoles per liter, 250 micrograms OVCAR-3 cell lysate
Description: FIGS. 1A-1G. 4EBP peptides bind eIF4E and inhibit binding of eIF4E to eIF4G. (FIG. 1A) Sequences of peptides comprising residues 49 to 68 of 4EBP1 and 4EBP2. (FIG. 1B) Biotinylated peptides (3 micromoles per liter) were incubated with 250 micrograms of OVCAR-3 cell lysate. Peptides were pulled-down using streptavidin-agarose. Precipitates (P) and supernatants (S) were analyzed by Western blot using eIF4E antibody. In (FIG. 1C), immunoprecipitation was performed using eIF4E antibody, and Western blot performed using eIF4G antibody. (FIG. 1D) Sequences of wild-type and mutant 4EBP peptides fused to TAT (mutant residues are highlighted). (FIG. 1E) OVCAR-3 cells were treated with biotinylated peptides (3 micromoles per liter, final concentration) for 16 hours. Internalized peptides were detected by staining fixed cells with Texas Red-conjugated streptavidin. Nuclei were visualized by staining with 4′,6-Diamidino-2-Phenylindole (DAPI). (FIGS. 1F and 1G) OVCAR-3 cell lysates were incubated with peptides as described for FIG. 1B. In (FIG. 1F), immunoprecipitation was performed using streptavidin-agarose and Western blot performed using eIF4E antibody. In (FIG. 1G), immunoprecipitation was performed using eIF4E antibody, and Western blot performed using eIF4G antibody.
FIGS. 3A-3H. Uptake, binding and inhibitory effects of [DLys6]GnRH-4EBP fusion peptides. (FIG. 3A) Sequences of [DLys6]GnRH, and wild-type and mutant 4EBP1 peptides fused to the agonist. (FIG. 3B) Western blot of GnRH-RI levels in OVCAR-3, ES-2, MDA-MB-231, BJ, HUVEC and SKOV3 cells. (FIG. 3C) Detection of biotinylated peptides in OVCAR-3 and SKOV3 by Texas Red-conjugated streptavidin at 16 hours after peptide addition (3 micromoles per liter). In (FIGS. 3D and 3E), biotinylated peptides were incubated with OVCAR-3 cell lysate as described in FIG. 1. In (FIG. 3D), peptide was pulled down using streptavidin-agarose. Precipitates (P) and supernatants (S) were analyzed by Western blot using eIF4E antibody. In (FIG. 3E), immunoprecipitation was performed using eIF4E antibody, and Western blot performed using eIF4G antibody. (FIG. 3F) R-Luc and F-Luc activities were assayed in ES-2-DualLuc cells at 6 hours after addition of the indicated concentrations of peptides, and are expressed relative to the respective luciferase activities in cells incubated without peptide. Shown are results of triplicate assays performed independently two times, and the statistical significance of differences in relative R-Luc and F-Luc activities in cells treated with peptide at a concentration of 10 micromoles per liter (FIG. 3G) Cells of GnRH-RI-positive and -negative lines were treated with the indicated concentrations of peptides. […]

T1 sequence (P06730 2-217 limits assumed): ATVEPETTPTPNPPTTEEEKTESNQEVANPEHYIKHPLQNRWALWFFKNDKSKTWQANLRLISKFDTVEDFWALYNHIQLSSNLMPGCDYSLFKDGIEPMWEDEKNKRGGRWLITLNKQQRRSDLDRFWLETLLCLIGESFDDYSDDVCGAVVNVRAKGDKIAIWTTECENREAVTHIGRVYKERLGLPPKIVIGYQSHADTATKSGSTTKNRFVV

[DLys6]GnRH: GnRH agonist with a D-amino acid substitution at position 6; GnRH-RI-targeting moiety (QHWSY[dK]LRPG; not fully specified (residue 1, C-terminus); ends and bridges not checked)
inhibition of eIF4E binding to eIF4G: not inhibited
